Measurements: the nanobody polyreactivity screen of Harvey et al. (2022)

Test: yeast display, Sf9 membrane polyspecificity reagent, FACS + sequencing; frameworks hold sequencing errors
Method in brief: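 Polyreactivity labels are assigned by the sorting gate from which each nanobody was recovered. The gates were low and high (top ~1%), set on anti-HA fluorescence for expression and streptavidin fluorescence for reagent binding. Before sorting, galactose-induced (36–48 hours) yeast display cells were stained for 1 hour at 4 °C with 10% biotinylated, detergent-solubilized Sf9 membrane reagent.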

Sequence	polyreactivity (PSR sort gate)
QVQLVESGGGLVQAGGSLRLSCAASGIIFPSYDMGWYRQAPGKERELVAAINSGDSTYYADSVKGRFTISRDNAKNTVYLQMNSLKPEDTAVYYCAANPGDLGGWYVPYDYWGQGTQVTVSS	low polyreactivity
QVQLVESGGGLVQAGGSLRLSCAASGIIFPSYVMGWYRQAPGKERELVAVITWSGGSTYYADSVKGRFTISRDNAKNTVYLQMNSLKPEDTAVYYCARRRRWVHSFDYWGQGTQVTVSS	high polyreactivity
QVQLVESGGGLVQAGGSLRLSCAASGIIFPTYVMGWYRQAPGKERELVAVISWSGASTYYADSVKGRFTISRDNAKNSVYLQMNSLKPEDTAVYYCAADWWRVEMDYWGQGTQVTVSS	low polyreactivity
QVQLVESGGGLVQAGGSLRLSCAASGIIFPYYAMGWYRQAPGKERELVAAINSSGGSTFYAHSVKGRFTISRDNAKNTVYLQMNSLKPVVTAVYYCAAETLRYRWSLYYWGQGTQVTVSS	high polyreactivity
QVQLVESGGGLVQAGGSLRLSCAASGIIFPYYAMGWYRQAPGKERELVARITRRGGSTYYADSVKGRFTISRDNAKNTVYLQMNSLKPEDTAVYYCAAYAPYYRTMEYWGQGTQVTLSS	high polyreactivity
QVQLVESGGGLVQAGGSLRLSCAASGIIFQDNAMGWYRQAPGKERELVATIDRGGDTYYADSVKGRFTISRDNAKNTVYLQMNSLKPEDTAVYYCAAVEFELRGDYWGQGTQVTVSS	low polyreactivity
QVQLVESGGGLVQAGGSLRLSCAASGIIFQFYAMGWYRQAPGKERELVAAISRSGGITHYADSVKGRFTISRDNAKNTVYLQMNSLKPEDTAVYYCAAVRQAYPRLDYWGQGTQVTVSS	high polyreactivity
QVQLVESGGGLVQAGGSLRLSCAASGIIFQFYAMGWYRQAPGKERELVAAISRSGGITHYADSVKGRFTISRDNAKNTVYLQMNSLKPEDTAVYYCNAVQPARFVGGFGTGVDYWGQGTQVTVSS	high polyreactivity
QVQLVESGGGLVQAGGSLRLSCAASGIIFQHNAMGWYRQAPGKERELVAAISSNGGRTFYPDSVKGRFTISRDNAKNTVYLQMNSLKPEDTAVYYCNRQYPSRYGYWGQGTQVTVSS	high polyreactivity
QVQLVESGGGLVQAGGSLRLSCAASGIIFQLNAMGWYRQAPGKERELVAAISSVGSTYYADSVKGRFTISRDNAKNTVYLQMNSLKPEDTAVYYCAAETYSTAHNAYFEIAYYWGQGTQVTVSS	high polyreactivity
QVQLVESGGGLVQAGGSLRLSCAASGIIFQQYAMGWYRQAPGKERELVAAITYSGDGTYYADSVKGRFTISRDNAKNTVYLQMNSLKPEDTAVYYCAAYPRDPYKEYDYWGQGTQVTVSS	low polyreactivity
QVQLVESGGGLVQAGGSLRLSCAASGIIFQRNDMGWYRQAPGKERELVASITSGGSTNYADSVKGRFTISRDNAKNTVYLQMNSLKPEDTAVYYCARVSVSDYDYWGQGTQVTVSS	low polyreactivity
QVQLVESGGGLVQAGGSLRLSCAASGIIFRANAMGWYRQAPGKERELVAAISSSGGSTFYADSVKGRFTISRDNAKNTVYLQMNSLKPEDTAVYFCAAGRSKFAWSEYEYWGQGTQVSVSS	low polyreactivity
QVQLVESGGGLVQAGGSLRLSCAASGIIFRDNAMGWYRQAPGKERELVAAIDSSGGTTYADSVKGRFTISRDNAKNTVYLQTHSLTPEDTAVYYCATEVYWTVSYYGYDYYGGNYYYWGQGTQVTVSS	low polyreactivity
QVQLVESGGGLVQAGGSLRLSCAASGIIFRFNGMGWYRQAPGKEREFVAAISGGAGSTYYADSVKGRFTISRDNAKNTVYLQMNSLKPEDTAVYYCAAVWRTRWASGYYWGQGTQVTVSS	high polyreactivity
QVQLVESGGGLVQAGGSLRLSCAASGIIFRFYAMGWYRQAPGKERELVARIRSRGGSTYYADSVKGRFTISRDNAKNTVYLQMNSLKPEDTAVYYCAAGAGYPYYWGQGTQVTVSS	high polyreactivity
QVQLVESGGGLVQAGGSLRLSCAASGIIFRGNAMGWYRQAPGKERELVAAISSGGSTYYADSVKGRFTISRDNAKNRVYLQMNSLKPEDTAVYYCNARWYYWGTLYGSWGHGTQVTVSS	high polyreactivity
QVQLVESGGGLVQAGGSLRLSCAASGIIFRGNAMGWYRQAPGKERELVAAMSKSGGRTYYADSVKGRFTISRDNAKNTVYLQMNSLKPEDTAVYYCAARRSTSYPAGNDYWGQGTQVTVSS	high polyreactivity
QVQLVESGGGLVQAGGSLRLSCAASGIIFRGYVMGWYRQAPGKERELVAAISTSGGRTSYADSVKGRFTISRDNAKNTVYLQMNSLKPEDTAVYYCAARPLYSYSQWGYGYWGQGTQVTVSS	high polyreactivity
QVQLVESGGGLVQAGGSLRLSCAASGIIFRLYAMGWYRQAPGKERELVAAISYRGGSTYYADSVKGRFTISRDNAKNTVYLQMNSLKPEDTAVYYCAGRNPRYSFYYWGQGTQVTVSS	high polyreactivity
QVQLVESGGGLVQAGGSLRLSCAASGIIFRLYGMGWYIQAPGKEREFVATITWRGGRTNYADSVKGRFTISRDNAKNTVYLQMNSLKPEDTAVYYCAAGSAPSYWGGWYYERDYWGQGTQVTVSS	low polyreactivity

Sequence	polyreactivity (PSR sort gate)
QVQLVESGGGLVQAGGSLRLSCAASGIIFRNYAMGWYRQAPGKEREFVASITKRGGSTYYADSVKGRFTISRDNAKNTVYLQMNSLKPEDTAVYYCNTQWYRGRTEYGYWGQGTQVTVSS	high polyreactivity
QVQLVESGGGLVQAGGSLRLSCAASGIIFRNYAMGWYRQAPGKERELVAAISRNGGSTYYADSVKGRFTISRDNAKNTVYLQMNSLKPEDTAVYYCAAVSPGTVTNGKSRDYWGQGTQVSVSS	high polyreactivity
QVQLVESGGGLVQAGGSLRLSCAASGIIFRPYAMGWYRQAPGKERELVAAITGSGVSTYYADSVKGRFTISRDNAKNTVYLQMNSLKPEDTAVYYCAARYDVHYDGMDYWGQGTQVTVSS	low polyreactivity
QVQLVESGGGLVQAGGSLRLSCAASGIIFRPYAMGWYRQAPGKEREMVAAITWSGTSTYYADSVKGRFTISRDNAKNTVYLQMNSLKPEDTAVYYCAATWSYGVSWYEYWGQGTQVTVSS	high polyreactivity
QVQLVESGGGLVQAGGSLRLSCAASGIIFRRYAMGWYRQAPGKERELVAAISWSGGSTYYADSVKGRFTISRDNAKNTVYLQMNSLKPEDTAVYYCAAAAYTRDEYDYWGQGTQVTVSS	high polyreactivity
QVQLVESGGGLVQAGGSLRLSCAASGIIFRRYAMGWYRQAPGKERELVAAITGSGGSTYYADSVKGRFTISRDNAKNTVYLQMNSLKPEDTAVYYCAAKGYPSRYSYGWYNYWGQGTQVTVSS	high polyreactivity
QVQLVESGGGLVQAGGSLRLSCAASGIIFRRYAMGWYRQAPGKERQLVARISFRGGSTYYADSVKGRFTISRDNAKNTVYLQMNSLKPEDTAVYYCNRDPRYSKEVDGDYWGQGTQVTVSS	high polyreactivity
QVQLVESGGGLVQAGGSLRLSCAASGIIFRRYAMGWYSQAPVKERELVAAITGSGGSPYYADSVKGRFTISRDNAKNTVYLQMNSLKPEDTAVYYCAAQSVLRFASSRYNSWGQGTQVTVSS	high polyreactivity
QVQLVESGGGLVQAGGSLRLSCAASGIIFRSNAMGWYRQAPVKETELVAAITGRGTRTYFADSVKGRFTISRDYAKYRVYFQMNSLKPEDTAVYYCNKGQTRGMGYWGQGTQVTVSS	high polyreactivity
QVQLVESGGGLVQAGGSLRLSCAASGIIFRSYTMGWYRQAPGKERELVASITRSGGITYYADSVKGRFTISRDNAKNTVYLQMNSLKPEDTAVYYCAARHRYYYQYRSDYWGQGTQVSVSS	high polyreactivity
QVQLVESGGGLVQAGGSLRLSCAASGIIFRTNAMGWYRQAPGKERDFVAAISAGGTRTYYADSVKGRFTISRDNAKNTVYLQMNSLKPEDTAVYYCAARYPEYETEDDYWGQGTQVTVSS	high polyreactivity
QVQLVESGGGLVQAGGSLRLSCAASGIIFRTYAMGWYRQAPGKERELVAAINSDGSTYYADSVKGRFTISRDNAKNTVYLQMNSLKPEDTAVYYCAAVVWRIHAYYWAVDGWYYYWGQGTQVTVSS	high polyreactivity
QVQLVESGGGLVQAGGSLRLSCAASGIIFRVNTIGWDRQAPGKEREMVARITGAGNTYYADSVNGRCTISRDNAKNSVYLQMNSLKPKDTAVYYCAVREFDKRRVIYYYWGQGTQVTVLS	high polyreactivity
QVQLVESGGGLVQAGGSLRLSCAASGIIFRVYAMGWYRQAPGKERELVAAITKGGGRTYYADSVKGRFTISRDNAKNTVYLQMNSLKPEDTAVYYCAARSSSSFEYWGQGTQVTVSS	high polyreactivity
QVQLVESGGGLVQAGGSLRLSCAASGIIFRVYAMGWYRQAPGKERELVATITWSGGSTFYADSVKGRFTISRDNAKNTVYLQMNSLKPEDTAVYYCAKRGYVRSGLGRPYADDYWGQGTQVTVSS	low polyreactivity
QVQLVESGGGLVQAGGSLRLSCAASGIIFRVYTMGWYRQAPGKERELVATIRTSGDSTYYADSVKGRFTISRDNAKNTVYLQMNSLKPEDTAVYYCAKRRNYWHYYWGQGTQVTVSS	high polyreactivity
QVQLVESGGGLVQAGGSLRLSCAASGIIFRYYAMGWYRQAPGKERELVAAISSSGVSTYYADSVKGRFTISRDNAKNNVYLQMNSLKPEDTAVYYCAAVTTWRMDYWGQGTQVNVSS	high polyreactivity
QVQLVESGGGLVQAGGSLRLSCAASGIIFRYYTMGWYRQAPGKERELVAAITQSSGRTYYADSVKGRFTISRDNAKNTVYLQMNCLIPEDTAVFYCNVRPLRSYRAVDYWGQGTQVTVSS	high polyreactivity
QVQLVESGGGLVQAGGSLRLSCAASGIIFSDYAMGWYRQAPGKERELVAAISRNGGSTYYADSVKGRFTISRDNAKNTVYLQMNSLKPEDTAVYYCAATRRYRYNWGQGTQVTVSS	high polyreactivity
QVQLVESGGGLVQAGGSLRLSCAASGIIFSDYAMGWYRQAPGKERELVAAITGGGSTYYADSVKGRFTISPDNAQNTVYLQMNSLKPEDTSVYYCNTDAWHETPVSGYSWGQCTQVTVSS	low polyreactivity
